What was measured:
[1] = target: HLA-A*1101 (Homo sapiens, UniProt P04439, A114D/D185E/E176A/F33Y/L180Q/S129P/T187R); test: HLA class I peptide binding assay; conditions: Table XVII
[2] = target: T1, HLA-A*0301 (Homo sapiens, UniProt P04439); test: HLA class I peptide binding assay; conditions: for A*0301 (binding information): Malaria A3 motif peptides, Table XVI; for A*301 (binding data): Malaria A03 supermotif peptides
T1 construct: endogenous in cells; host or cells: GM3107

[3] = target: T2, DRB1*0301 (DR3) (Homo sapiens, UniProt P01903+P01911, A100K/A102G/A103R/A169T/F55Y/I96L/K41T/L162R/M171V/P40S/Q125H/Q178H/Q39Y/R42S/S66N/T106N/T262R/W38E/Y61H); test: HLA class II peptide binding assay (pH 4.5); conditions: for DR3 binding information: unit not given; for DR3 binding data: Table XIXb
T2 construct: endogenous in cells; host or cells: MAT

[4] = target: T3, DRB1*0101 (DR1) (Homo sapiens, UniProt P01903+P01911, A100R/D57E/F55L/F60I/F76Y/I96L/L162R/M171V/P40L/Q125E/R42F/V115G/Y59C); test: HLA class II peptide binding assay; conditions: for DR1 binding data: Table XIXb, Malaria Super Motif Peptides With Binding Data; for DR1 binding information: unit not given
T3 construct: endogenous in cells; host or cells: LG2

[5] = target: T4, DRB1*0401 (DR4w4) (Homo sapiens, UniProt P01903+P01911, A100K/A169T/F76Y/I96L/K127E/L162R/M171V/N62H/P40V/Q125Y/R42H/S133A/S149N/S66Y/V115G/V209L/W38E); test: HLA class II peptide binding assay; conditions: for DR4w4 binding data: Table XIXb; for DR4w4 binding information: unit not given
T4 construct: endogenous in cells; host or cells: Preiss

[6] = target: T5, DRB1*0405 (DR4w15) (Homo sapiens, UniProt P01903+P01911, A100R/A169T/D86S/F76Y/I96L/K127E/L162R/M171V/N62H/P40V/Q125Y/R42H/S133A/S149N/S66Y/V115G/V209L/W38E); test: HLA class II peptide binding assay; conditions: for DR4w15 binding data: Table XIXb; for DR4w15 binding information: unit not given
T5 construct: endogenous in cells; host or cells: KT3

[7] = target: T6, DRB1*0701 (DR7) (Homo sapiens, UniProt P01903+P01911, A100R/A102G/A103Q/D57E/D86V/E43K/F76Y/K127E/L162R/M171V/P40G/Q125H/Q99D/R33Q/R42Y/R54Q/S133A/S66F/T210M/V115G/Y107V/Y59L/Y89S); test: biochemical; type: binding
T6 construct: endogenous in cells; host or cells: Pitout

[8] = target: T7, DRB1*0802 (DR8w2) (Homo sapiens, UniProt P01903+P01911, A100R/A103L/A169T/F76Y/H45Y/I96F/K41T/L162R/M171V/P40S/Q125H/Q178H/Q39Y/Q99D/R218S/R42G/S66Y/V115G/W38E); test: biochemical; type: binding
T7 construct: endogenous in cells; host or cells: OLL

[9] = target: T8, DRB1*1101 (DR5w11) (Homo sapiens, UniProt P01903+P01911, A100R/A169T/A87E/I96F/K41T/L162R/M171V/P40S/Q125H/Q178H/Q39Y/Q99D/R42S/S66Y/T262R/V115G/W38E); test: biochemical; type: binding
T8 construct: endogenous in cells; host or cells: Sweig

[10] = target: T9, DRB1*1201 (DR5w12) (Homo sapiens, UniProt P01903+P01911, A100R/A169T/D57E/D86V/F55L/H45Y/K41T/L162R/M171V/P40S/Q125H/Q178H/Q39Y/Q99D/R42G/S66L/T262R/V114A/V67L/W38E/Y59H/Y61H/Y89S); test: HLA class II peptide binding assay; conditions: for DR5w12 binding data: Table XIXb; for DR5w12 binding information: unit not given
T9 construct: endogenous in cells; host or cells: Herluf

[11] = target: T10, DRB5*0101 (DR2w2β2) (Homo sapiens, UniProt P01903+Q30154); type: binding
T10 construct: expressed in transfected cells; host or cells: L416.3 (fibroblasts) or GM3107

[12] = target: T11, DRB4*0101 (DRw53) (Homo sapiens, UniProt P01903+P13762, G164S); test: HLA class II peptide binding assay (pH 5.0); conditions: Table XIXb; DRw53
T11 construct: expressed in transfected cells; host or cells: L257.6 (fibroblasts)

[13] = malaria A11 motif peptides, binding value unit not given
[14] = binding value to HLA-A*0301, unit not given
[15] = Malaria A11 motif peptides, HLA-A*1101 binding value, unit not given
[16] = Malaria A11 motif peptides, binding value for HLA-A*1101, unit not given
[17] = HLA-A*0301 binding value, unit not given
[18] = DR3a motif peptides, exemplary 15-mer containing the core sequence

T8 sequence (P01903 26-254, other chains not shown): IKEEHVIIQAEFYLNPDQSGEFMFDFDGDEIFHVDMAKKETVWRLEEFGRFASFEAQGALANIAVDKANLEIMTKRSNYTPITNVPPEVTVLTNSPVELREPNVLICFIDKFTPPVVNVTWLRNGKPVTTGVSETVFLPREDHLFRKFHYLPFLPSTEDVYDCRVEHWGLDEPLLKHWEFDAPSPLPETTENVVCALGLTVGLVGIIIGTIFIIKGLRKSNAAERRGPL
T4 sequence (P01903 26-254 partner, other chains not shown): as the sequence (P01903 26-254, other chains not shown) above
T3 sequence (P01903 26-254 partner, other chains not shown): as the sequence (P01903 26-254, other chains not shown) above

CCKGIRSRKR
A*1101 binding information [1, 13]: 0.0002

CSVTCGKGTR
A*0301 (binding information) [2, 14]: 0.0002 | A*301 (binding data) ([2]; binding value, no unit given): 0.0002 | A*1101 binding information [1, 13]: 0.0002

DGNNEDNEX
A*1101 binding information [1, 15]: 0.0002

EDMCYFMK
A*1101 binding information [1, 16]: 0.0003

EMADCTNK
A*1101 binding information [1, 15]: 0.0002

ESITINVEGR
A*1101 binding information [1, 16]: 0.0002

FDEILGEEDK
A*1101 binding information [1, 13]: 0.0002

FLKENKLNK
A*301 (binding data) ([2]; binding value, no unit given): 0.0260 | A*0301 (binding information) [2, 17]: 0.0260 | A*1101 binding information [1, 16]: 0.0005 | DR3 binding information ([3]; Malaria DR3b motif peptides): 0.0950

FVEALFQEY
A*1101 binding information [1, 15]: 0.0003

GLVLYNIEK
A*1101 binding information [1, 15]: 0.0055

HORNNENRSY
A*1101 binding information [1, 13]: 0.0002

IFLKENIQNK
A*1101 binding information [1, 16]: 0.0002

IQNHTLETV
DR1 binding data [4]: 0.0001 | DR3 binding data [3]: -0.0041 | DR4w4 binding data [5]: -0.0007 | DR4w15 binding data [6]: -0.0014 | DR7 binding data [7]: -0.0003 | DR8w2 binding data [8]: -0.0003 | DR5w11 binding data [9]: -0.0002 | DR5w12 binding data [10]: 0.0001 | DR2w2β2 binding data [11]: -0.0005

KGKKYEKIK
A*0301 (binding information) [2, 17]: 0.0002 | A*1101 binding information [1, 16]: 0.0002

KSLYDEHIIK
A*1101 binding information [1, 16]: 0.0340

LALLACAGL
DR1 binding data [4]: 0.0018 | DR4w4 binding data [5]: -0.0007 | DR4w15 binding data [6]: -0.0014 | DR7 binding data [7]: 0.0009 | DR8w2 binding data [8]: 0.0003 | DR5w11 binding data [9]: -0.0002 | DR5w12 binding data [10]: 0.0051 | DRw53 binding data [12]: -0.0005 | DR2w2β2 binding data [11]: 0.0013

LERTKASKE
DR7 binding data [7]: 0.0010 | DR8w2 binding data [8]: -0.0003 | DRw53 binding data [12]: -0.0005

LGGVGLVLY
A*0301 (binding information) ([2]; binding value for HLA-A*0301, unit not given): 0.0001 | A*1101 binding information [1, 15]: 0.0002 | DR1 binding data [4]: 0.4900 | DR4w4 binding data [5]: 0.0032 | DR4w15 binding data [6]: -0.0009 | DR7 binding data [7]: 0.0007 | DR8w2 binding data [8]: -0.0002 | DR5w11 binding data [9]: -0.0062 | DR5w12 binding data [10]: 0.0004 | DR2w2β2 binding data [11]: -0.005

LGVSENTIFLK
A*1101 binding information [1, 16]: 0.0063

LHEGCTSEL
DR1 binding data [4]: 0.0001 | DR3 binding data [3]: -0.0041 | DR4w4 binding data [5]: -0.0009 | DR4w15 binding data [6]: -0.0014 | DR7 binding data [7]: -0.0003 | DR8w2 binding data [8]: -0.0003 | DR5w11 binding data [9]: -0.0002 | DR5w12 binding data [10]: 0.0001 | DR2w2β2 binding data [11]: -0.0005

LNKEGKLIE
DR1 binding information ([4]; Malaria DR3b motif peptides): 0.0001 | DR3 binding information ([3]; Malaria DR3b motif peptides): -0.0140 | DR4w4 binding information ([5]; Malaria DR3b motif peptides): -0.0017 | DR4w15 binding information ([6]; Malaria DR3b motif peptides): -0.0047 | DR7 binding information [7]: -0.0009 | DR8w2 binding information [8]: -0.0007 | DR5w11 binding information [9]: -0.0005 | DR5w12 binding information ([10]; Malaria DR3b motif peptides): -0.0003 | DR2w2β2 binding information [11]: -0.0021

LSTNLPYGR
A*0301 (binding information) [2, 14]: 0.0004 | A*301 (binding data) ([2]; Table IX): 0.0004 | A*1101 binding information [1, 13]: 0.0100 | DR1 binding data [4]: 0.0012 | DR4w4 binding data [5]: 0.0120 | DR7 binding data [7]: 0.0005

NSEDRETPPH
A*1101 binding information [1, 13]: 0.0002

QCEEERCPPK
A*0301 (binding information) [2, 14]: 0.0004 | A*1101 binding information [1, 13]: 0.0002

SLYDEHRKY
A*1101 binding information [1, 13]: 0.0045

SVTCGKOTFt (SVTCGKGTR)
A*1101 binding information [1, 13]: 0.0009

TCGKGIRSRK
A*1101 binding information [1, 13]: 0.0002

VDELSEDTK
A*1101 binding information [1, 13]: 0.0002

VDLYLLMDC
DR1 binding data [4]: 0.0001 | DR4w4 binding data [5]: 0.0028 | DR4w15 binding data [6]: -0.0009 | DR7 binding data [7]: -0.0003 | DR8w2 binding data [8]: -0.0003 | DR5w11 binding data [9]: -0.0002 | DR5w12 binding data [10]: 0.0001 | DR2w2β2 binding data [11]: -0.0005

VEKTASCGV
DR1 binding data [4]: 0.0004 | DR4w4 binding data [5]: 0.0021 | DR4w15 binding data [6]: -0.0009 | DR7 binding data [7]: 0.0095 | DR8w2 binding data [8]: 0.0005 | DR5w11 binding data [9]: -0.0002 | DR5w12 binding data [10]: 0.0001 | DR2w2β2 binding data [11]: -0.0009

VLYNTEXGRH
A*1101 binding information [1, 15]: 0.0002

VWDEWSPCS
DR1 binding information [4, 18]: 0.0001 | DR3 binding information [3, 18]: -0.0041 | DR4w4 binding information [5, 18]: -0.0009 | DR4w15 binding information [6, 18]: -0.0009 | DR7 binding information [7]: -0.0003 | DR8w2 binding information [8]: -0.0003 | DR5w11 binding information [9]: -0.0002 | DR5w12 binding information [10, 18]: 0.0001 | DR2w2β2 binding information [11]: -0.0005

WSPCSVTCGK
A*1101 binding information [1, 13]: 0.0002

YDNAGINLY
DR1 binding data [4]: 0.0003 | DR4w4 binding data [5]: -0.0009 | DR4w15 binding data [6]: -0.0009 | DR7 binding data [7]: -0.0003 | DR8w2 binding data [8]: -0.0003 | DR5w11 binding data [9]: -0.0002 | DR5w12 binding data [10]: 0.0001 | DR2w2β2 binding data [11]: -0.0005
